Consider 6 molecules from PMC10899256, “TBC1D23 mediates Golgi-specific LKB1 signaling” (Nature Communications, 2024).

Where a chain is given by its changes, count along the chain named. In names and notes the source's numbering stands.

In test [1] the target is T1, purified GST-TBC1D23 PH domain (545–684) (human, UniProt Q9NUY8-2 545-684).
T1 construct: also called purified TBC1D23 PH
The test can be described thus: pull-down; recombinant proteins: MBP or MBP-tagged LKB1 CRD-LFa held, purified GST-TBC1D23 PH as prey; same procedure as for GST-tagged proteins (50 mM Tris pH 8.0, 500 mM NaCl, 0.05% Triton X-100, 4 °C 1 h). The following applies: both partners purified.

The target of test [2] is T2, purified TBC1D23 PH domain (545–684) (human, UniProt Q9NUY8-2 545-684).
T2 construct: Used as prey for GST-tagged baits on glutathione beads and in ITC, so the GST was probably removed
As to the kind of experiment: ITC; LKB1-LFa motif peptides (1.0 mM) titrated into TBC1D23 PH domain (50 µM) at 25 °C; 100 mM Tris pH 8.0, 500 mM NaCl, 5% v/v glycerol. The following applies: both partners purified.

T2 sequence (Q9NUY8 560-699): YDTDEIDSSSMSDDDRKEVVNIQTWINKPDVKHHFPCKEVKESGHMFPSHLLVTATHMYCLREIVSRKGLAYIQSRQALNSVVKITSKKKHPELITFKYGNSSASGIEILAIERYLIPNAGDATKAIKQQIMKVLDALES
T1 sequence (Q9NUY8 560-699): as above

B1: MBP-LKB1 CRD-LFa WT (domain or fragment, human, UniProt Q15831 347-433, looked up)
chain: ADEDEDLFDIEDDIIYTQDFTVPGQVPEEEASHNGQRRGLPKAVCMNGTEAAQLSTKSRAEGRAPNPARKACSASSKIRRLSACKQQ
notes: LKB1 (STK11) CRD, residues 347–433; also called LKB1 WT; LKB1 CRD (347–433)
On to B1, for which the binding result in test [1] is on record as “binds”.

B2: MBP-LKB1 CRD-LFa F354L (domain or fragment, human, UniProt Q15831 347-433, looked up)
chain: B1 chain with F8L
notes: LKB1 (STK11) CRD, residues 347–433, with F354L (reported in Peutz–Jeghers patients, present in gnomAD); also called LKB1 F354L
B2: the binding result in test [1] is given as “binds”.

B3: MBP-LKB1 CRD-LFa F354A (domain or fragment, human, UniProt Q15831 347-433, looked up)
chain: B1 chain with F8A
notes: LKB1 (STK11) CRD, residues 347–433, with F354A; also called LKB1 F354A
B3: the binding result in test [1] is “binds”.

B4: LKB1 LFa peptide WT (peptide)
peptide: GADEDEDLFDIEDDIIYTQD
notes: LKB1 (STK11) LFa motif peptide; also called LKB1-LFa motif peptide; LKB1-LFa WT
Consider B4, for which, in test [2], the Ka came out at 1.25e+06 M⁻¹; the affinity, expressed as Kd, was 0.8 µM; the stoichiometry N (in general, a count of units in the complex or per binding partner) was found to be 1.

B5: LKB1 LFa peptide F354L (peptide)
peptide: GADEDEDLLDIEDDIIYTQD
notes: LKB1 (STK11) LFa motif peptide with F354L, a mutation reported in Peutz–Jeghers patients and present in gnomAD; also called LKB1 F354L; LKB1-LFa mutants
For B5, the “fold by which the affinity of LKB1 WT is higher” value in test [2] was about 3 fold.

B6: LKB1 LFa peptide F354A (peptide)
peptide: GADEDEDLADIEDDIIYTQD
notes: LKB1 (STK11) LFa motif peptide with F354A; also called LKB1 F354A; LKB1-LFa mutants
On to B6, for which the “fold by which the affinity of LKB1 WT is higher” value in test [2] is about 3 fold.
